Drawing on paper PMC4562626, this text covers expression_or_secretion for one protein.

This data set in a line: TIRF total EGFP fluorescence in adhered membrane. To be noted: glycan lost; control: wild type Kv1.1-EGFP.

B1: Kv1.1: N207Q (protein)
parent chain: MTVMSGENADEASAAPGHPQDGSYPRQADHDDHECCERVVINISGLRFETQLKTLAQFPNTLLGNPKKRMRYFDPLRNEYFFDRNRPSFDAILYYYQSGGRLRRPVNVPLDMFSEEIKFYELGEEAMEKFREDEGFIKEEERPLPEKEYQRQVWLLFEYPESSGPARVIAIVSVMVILISIVIFCLETLPELKDDKDFTGTIHRIDNTTVIYTSNIFTDPFFIVETLCIIWFSFELVVRFFACPSKTDFFKNIMNFIDIVAIIPYFITLGTEIAEQEGNQKGEQATSLAILRVIRLVRVFRIFKLSRHSKGLQILGQTLKASMRELGLLIFFLFIGVILFSSAVYFAEAEEAESHFSSIPDAFWWAVVSMTTVGYGDMYPVTIGGKIVGSLCAIAGVLTIALPVPVIVSNFNYFYHRETEGEEQAQLLHVSSPNLASDSDLSRRSSSTISKSEYMEIEEDMNNSIAHYRQANIRTGNCTATDQNCVNKSKLLTDV
Take B1: the expression_or_secretion entry was “no change”.
